Results: publication PMC5532383

Target: PPI peptide (…) in complex with pMHC-CD8wt monomer (HLA-A02:01)
Experiment: micropipette adhesion frequency assay; biotinylated pMHC monomers on streptavidin-coated biotinylated RBCs brought into contact with single CTL clones; adhesion frequency against contact time, equilibrium at 4 s; 2D affinity AcKa in μm^4; room temperature (main figures) and 37°C (supplement)

“CD8 co-receptor on human HCV-specific CTL clones (from UniProt P01732 22-235; P10966 22-210)” was tested, and the 2D affinity (AcKa) was 1e-06 μm^4.
